Source: US20090099029A1, “Methods and substrates for conducting assays” (Invitrogen Corporation, priority 2005, published 2009)

B1: MAPKAPK3 (protein)
chain: MDGETAEEQGGPVPPPVAPGGPGLGGAPGGRREPKKYAVTDDYQLSKQVLGLGVNGKVLECFHRRTGQKCALKLLYDSPKARQEVDHHWQASGGPHIVCILDVYENMHHGKRCLLIIMECMEGGELFSRIQERGDQAFTEREAAEIMRDIGTAIQFLHSHNIAHRDVKPENLLYTSKEKDAVLKLTDFGFAKETTQNALQTPCYTPYYVAPEVLGPEKYDKSCDMWSLGVIMYILLCGFPPFYSNTGQAISPGMKRRIRLGQYGFPNPEWSEVSEDAKQLIRLLLKTDPTERLTITQFMNHPWINQSMVVPQTPLHTARVLQEDKDHWDEVKEEMTSALATMRVDYDQVKIKDLKTSNNRLLNKRRKKQAGSSSASQGCNNQ
modifications: left off: small tags and cut ends
B2: NEK3 (protein)
chain: MDDYMVLRMIGEGSFGRALLVQHESSNQMFAMKEIRLPKSFSNTQNSRKEAVLLAKMKHPNIVAFKESFEAEGHLYIVMEYCDGGDLMQKIKQQKGKLFPEDMILNWFTQMCLGVNHIHKKRVLHRDIKSKNIFLTQNGKVKLGDFGSARLLSNPMAFACTYVGTPYYVPPEIWENLPYNNKSDIWSLGCILYELCTLKHPFQANSWKNLILKVCQGCISPLPSHYSYELQFLVKQMFKRNPSHRPSATTLLSRGIVARLVQKCLPPEIIMEYGEEVLEEIKNSKHNTPRKKTNPSRIRIALGNEASTVQEEEQDRKGSHTDLESINENLVESALRRVNREEKGNKSVHLRKASSPNLHRRQWEKNVPNTALTALENASILTSSLTAEDDRGGSVIKYSKNTTRKQWLKETPDTLLNILKNADLSLAFQTYTIYRPGSEGFLKGPLSEETEASDSVDGGHDSVILDPERLEPGLDEEDTDFEEEDDNPDWVSELKKRAGWQGLCDR
modifications: left off: a dimerising Fc or GST
B3: MINK1 (protein)
chain: MGDPAPARSLDDIDLSALRDPAGIFELVEVVGNGTYGQVYKGRHVKTGQLAAIKVMDVTEDEEEEIKQEINMLKKYSHHRNIATYYGAFIKKSPPGNDDQLWLVMEFCGAGSVTDLVKNTKGNALKEDCIAYICREILRGLAHLHAHKVIHRDIKGQNVLLTENAEVKLVDFGVSAQLDRTVGRRNTFIGTPYWMAPEVIACDENPDATYDYRSDIWSLGITAIEMAEGAPPLCDMHPMRALFLIPRNPPPRLKSKKWSKKFIDFIDTCLIKTYLSRPPTEQLLKFPFIRDQPTERQVRIQLKDHIDRSRKKRGEKEETE
modifications: left off: a dimerising Fc or GST
B4: MYLK2 (protein)
chain: MATENGAVELGIQNPSTDKAPKGPTGERPLAAGKDPGPPDPKKAPDPPTLKKDAKAPASEKGDGTLAQPSTSSQGPKGEGDRGGGPAEGSAGPPAALPQQTATPETSVKKPKAEQGASGSQDPGKPRVGKKAAEGQAAARRGSPAFLHSPSCPAIISSSEKLLAKKPPSEASELTFEGVPMTHSPTDPRPAKAEEGKNILAESQKEVGEKTPGQAGQAKMQGDTSRGIEFQAVPSEKSEVGQALCLTAREEDCFQILDDCPPPPAPFPHRMVELRTGNVSSEFSMNSKEALGGGKFGAVCTCMEKATGLKLAAKVIKKQTPKDKEMVLLEIEVMNQLNHRNLIQLYAAIETPHEIVLFMEYIEGGELFERIVDEDYHLTEVDTMVFVRQICDGILFMHKMRVLHLDLKPENILCVNTTGHLVKIIDFGLARRYNPNEKLKVNFGTPEFLSPEVVNYDQISDKTDMWSMGVITYMLLSGLSPFLGDDDTETLNNVLSGNWYFDEETFEAVSDEAKDFVSNLIVKDQRARMNAAQCLAHPWLNNLAEKAKRCNRRLKSQILLKKYLMKRRWKKNFIAVSAANRFKKISSSGALMALGV
modifications: left off: a dimerising Fc or GST
B5: MAPKAPK5(PRAK) (protein)
chain: MSEESDMDKAIKETSILEEYSINWTQKLGAGISGPVRVCVKKSTQERFALKILLDRPKARNEVRLHMMCATHPNIVQIIEVFANSVQFPHESSPRARLLIVMEMMEGGELFHRISQHRHFTEKQASQVTKQIALALRHCHLLNIAHRDLKPENLLFKDNSLDAPVKLCDFGFAKIDQGDLMTPQFTPYYVAPQVLEAQRRHQKEKSGIIPTSPTPYTYNKSCDLWSLGVIIYVMLCGYPPFYSKHHSRTIPKDMRRKIMTGSFEFPEEEWSQISEMAKDVVRKLLKVKPEERLTIEGVLDHPWLNSTEALDNVLPSAQLMMDKAVVAGIQQAHAEQLANMRIQDLKVSLKPLHSVNNPILRKRKLLGTKPKDSVYIHDHENGAEDSNVALEKLRDVIAQCILPQAGENEDEKLNEVMQEAWKYNRECKLLRDTLQSFSWNGRGFTDKVDRLKLAEIVKQVIEEQTTSHESQ
modifications: left off: small tags and cut ends
B6: MAPK8(JNK1) (protein)
chain: MSRSKRDNNFYSVEIGDSTFTVLKRYQNLKPIGSGAQGIVCAAYDAILERNVAIKKLSRPFQNQTHAKRAYRELVLMKCVNHKNIIGLLNVFTPQKSLEEFQDVYIVMELMDANLCQVIQMELDHERMSYLLYQMLCGIKHLHSAGIIHRDLKPSNIVVKSDCTLKILDFGLARTAGTSFMMTPYVVTRYYRAPEVILGMGYKENVDLWSVGCIMGEMVCHKILFPGRDYIDQWNKVIEQLGTPCPEFMKKLQPTVRTYVENRPKYAGYSFEKLFPDVLFPADSEHNKLKASQARDLLSKMLVIDASKRISVDEALQHPYINVWYDPSEAEAPPPKIPDKQLDEREHTIEEWKELIYKEVMDLEERTKNGVIRGQPSPLAQVQQ
modifications: left off: small tags and cut ends
B7: NEK2 (protein)
chain: MPSRAEDYEVLYTIGTGSYGRCQKIRRKSDGKILVWKELDYGSMTEAEKQMLVSEVNLLRELKHPNIVRYYDRIIDRTNTTLYIVMEYCEGGDLASVITKGTKERQYLDEEFVLRVMTQLTLALKECHRRSDGGHTVLHRDLKPANVFLDGKQNVKLGDFGLARILNHDTSFAKTFVGTPYYMSPEQMNRMSYNEKSDIWSLGCLLYELCALMPPFTAFSQKELAGKIREGKFRRIPYRYSDELNEIITRMLNLKDYHRPSVEEILENPLIADLVADEQRRNLERRGRQLGEPEKSQDSSPVLSELKLKEIQLQERERALKAREERLEQKEQELCVRERLAEDKLARAENLLKNYSLLKERKFLSLASNPELLNLPSSVIKKKVHFSGESKENIMRSENSESQLTSKSKCKDLKKRLHAAQLRAQALSDIEKNYQLKSRQILGMR
modifications: left off: small tags and cut ends
B8: MAPK13(p38delta) (protein)
chain: MSLIRKKGFYKQDVNKTAWELPKTYVSPTHVGSGAYGSVCSAIDKRSGEKVAIKKLSRPFQSEIFAKRAYRELLLLKHMQHENVIGLLDVFTPASSLRNFYDFYLVMPFMQTDLQKIMGMEFSEEKIQYLVYQMLKGLKYIHSAGVVHRDLKPGNLAVNEDCELKILDFGLARHADAEMTGYVVTRWYRAPEVILSWMHYNQTVDIWSVGCIMAEMLTGKTLFKGKDYLDQLTQILKVTGVPGTEFVQKLNDKAAKSYIQSLPQTPRKDFTQLFPRASPQAADLLEKMLELDVDKRLTAAQALTHPFFEPFRDPEEETEAQQPFDDSLEHEKLTVDEWKQHIYKEIVNFSPIARKDSRRRSGMKL
modifications: left off: small tags and cut ends
B9: PAK1 (protein)
chain: MSNNGLDIQDKPPAPPMRNTSTMIGAGSKDAGTLNHGSKPLPPNPEEKKKKDRFYRSILPGDKTNKKKEKERPEISLPSDFEHTIHVGFDAVTGEFTGMPEQWARLLQTSNITKSEQKKNPQAVLDVLEFYNSKKTSNSQKYMSFTDKSAEDYNSSNALNVKAVSETPAVPPVSEDEDDDDDDATPPPVIAPRPEHTKSVYTRSVIEPLPVTPTRDVATSPISPTENNTTPPDALTRNTEKQKKKPKMSDEEILEKLRSIVSVGDPKKKYTRFEKIGQGASGTVYTAMDVATGQEVAIKQMNLQQQPKKELIINEILVMRENKNPNIVNYLDSYLVGDELWVVMEYLAGGSLTDVVTETCMDEGQIAAVCRECLQALEFLHSNQVIHRDIKSDNILLGMDGSVKLTDFGFCAQITPEQSKRSTMVGTPYWMAPEVVTRKAYGPKVDIWSLGIMAIEMIEGEPPYLNENPLRALYLIATNGTPELQNPEKLSAIFRDFLNRCLEMDVEKRGSAKELLQHQFLKIAKPLSSLTPLIAAAKEATKNNH
modifications: left off: a dimerising Fc or GST
B10: MAPK14(p38alpha) (protein)
chain: MSQERPTFYRQELNKTIWEVPERYQNLSPVGSGAYGSVCAAFDTKTGLRVAVKKLSRPFQSIIHAKRTYRELRLLKHMKHENVIGLLDVFTPARSLEEFNDVYLVTHLMGADLNNIVKCQKLTDDHVQFLIYQILRGLKYIHSADIIHRDLKPSNLAVNEDCELKILDFGLARHTDDEMTGYVATRWYRAPEIMLNWMHYNQTVDIWSVGCIMAELLTGRTLFPGTDHINQLQQIMRLTGTPPAYLINRMPSHEARNYIQSLTQMPKMNFANVFIGANPLAVDLLEKMLVLDSDKRITAAQALAHAYFAQYHDPDDEPVADPYDQSFESRDLLIDEWKSLTYDEVISFVPPPLDQEEMES
modifications: left off: a dimerising Fc or GST
B11: EPHA5 (protein)
chain: SGSCCECGCGRASSLCAVAHPSLIWRCGYSKAKQDPEEEKMHFHNGHIKLPGVRTYIDPHTYEDPNQAVHEFAKEIEASCITIERVIGAGEFGEVCSGRLKLPGKRELPVAIKTLKVGYTEKQRRDFLGEASIMGQFDHPNIIHLEGVVTKSKPVMIVTEYMENGSLDTFLKKNDGQFTVIQLVGMLRGISAGMKYLSDMGYVHRDLAARNILINSNLVCKVSDFGLSRVLEDDPEAAYTTRGGKIPIRWTAPEAIAFRKFTSASDVWSYGIVMWEVVSYGERPYWEMTNQDVIKAVEEGYRLPSPMDCPAALYQLMLDCWQKERNSRPKFDEIVNMLDKLIRNPSSLKTLVNASCRVSNLLAEHSPLGSGAYRSVGEWLEAIKMGRYTEIFMENGYSSMDAVAQVTLEDLRRLGVTLVGHQKKIMNSLQEMKVQLVNGMVPL
modifications: left off: a dimerising Fc or GST

Each molecule was assayed on kinases of Table 6 on Myelin Basic Protein (MBP) (assay: Kinase assay using MBP substrate, ProQ Diamond stain (Table 6)). Settings: kinase printed on MBP-coated slide; 20 uM ATP, 30° C.; ProQ Diamond Microarray Stain; graded Strong/Weak/Negative.
Assay type: biochemical
In short: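 Reactions ran at 30° C. with 20 uM ATP, 4 mM MgCl2 and 5% DMSO in HEPES pH 7.5, inhibitor added or omitted. Kinases had been arrayed onto slide-bound dephosphorylated bovine MBP; phospho-signal read after ProQ Diamond staining.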
With B1 the “MBP Kinase Activity” value was “Strong”.
B2 was tested, and the “MBP Kinase Activity” value was “Negative”.
With B3 the “MBP Kinase Activity” value was “Weak”.
In the case of B4, the “MBP Kinase Activity” value is reported as “Negative”.
B5 was tested, and the “MBP Kinase Activity” value was “Strong”.
For B6, the “MBP Kinase Activity” value was “Negative”.
With B7 the “MBP Kinase Activity” value was “Strong”.
B8 was tested, and the “MBP Kinase Activity” value was “Weak”.
With B9 the “MBP Kinase Activity” value was “Negative”.
In the case of B10, the “MBP Kinase Activity” value is reported as “Strong”.
With B11 the “MBP Kinase Activity” value was “Negative”.
